The target in test [1] is yeast αβ-tubulin (wild type) (yeast (overexpressed in S. cerevisiae)) (UniProt P09733). Nature of the test: AUC.
In test [2] the target is Yeast tubulin with a C-terminal … tag, ReAsH-labeled (yeast (overexpressed in S. cerevisiae)) (UniProt P09733). Nature of the test: TIRF microscopy microtubule-binding titration.

A word on the Kd: it is a measure of binding affinity in units of concentration.

Regarding “Stu1-TOG2 (305-567) (from UniProt P38198 305-567) (domain or fragment)”, the Kd in test [1] amounted to 1.68 µM.

B1: Alexa-488-labeled Stu1-TOG2 with a KCK tag (domain or fragment)
chain: DPAMKKNYESLNQLQQDLENLLAPFQSVKETEQNWKLRQSNIIELDNIISGNIPKDNPEEFVTVIKEVQLIELISRATSSLRTTLSLTALLFLKRLIHILNDQLPLSILDQIFVIFKNLLSSTKKISSQTAFHCLITLIIDINHFHNKLFQLSFLLINEKTVTPRFCSAILLRSFLIKFNDSNLSLNNSNTTSPTSKLENNIIYIEEWLKKGISDSQTTVREAMRLTFWYFYKCYPTNAKRLLSSSFSPQLKKATELAIPAHL
modifications: Alexa-488 label
Molecule B1 displayed a Kd in test [2] of 12 µM. In other words, the double-digit micromolar range.

B2: Alexa-488-labeled Stu1-TOG1 with a KCK tag (domain or fragment)
chain: NSNTNTHPDDSFPLYTVFKDESVPIEEKMALLTRFKGHVKKELVNESSIQAYFAALLFISGHYAYRSYPRLIFLSHSSLCYLIKRVAMQSPVQFNDTLVEQLLNHLIFELPNEKKFWLASIKAIEAIYLVNPSKIQAILANFLRRPSENQNGDYLNRIKSTLLTIDELIQINEKNNSNHLQLLRFFMLSFTNLLNNNLNEHANDDNNNVIIELIFDIMYKYLKMDDENSQDLIDGFINDLEVEKFKQKFISLAKSQDQHGSQEDKS
modifications: Alexa-488 label
On to B2, for which, in test [2], the Kd was determined as 40 µM.

These data come from article PMC5994897.
